The RNAGym collection of RNA variant scans (doi:10.7554/elife.80360)

B1: HDV Ribozyme (parent)
chain: GGCCGGCAUGGUCCCAGCCUCCUCGCUGGCGCCGGCUGGGCAACAUUCCGAGGGGACCGUCCCCUCGGUAAUGGCGAAUGGGACCCA

Variants of: B1
Assay: self-cleavage, relative activity (ratio to wild type); higher = more cleavage; co-transcriptional

Row | Variant | self-cleavage
1 | GGCCGGCAUGGUCCCAGCCUCCUCGCUGCCGCCGACUGGGCAACAUUCCGAGGGGACCGUCCCCUCGGUAAUGGCGAAUGGGACCCA [G29C G35A] | 0.104
2 | GGCCGGCAUGGUCCCAGCCUCCUCGCUGCCGCCGGCUGGGCAAAAUUCCGAGGGGACCGUCCCCUCGGUAAUGGCGAAUGGGACCCA [G29C C44A] | 0.0554
3 | GGCCGGCAUGGUCCCAGCCUCCUCGCUGCCGCCGGCUGGGCAACAUUCCGAGGGGACCGUCCCCUCGGUACUGGCGAAUGGGACCCA [G29C A71C] | 0.0536
4 | GGCCGGCAUGGUCCCAGCCUCCUCGCUGCCGCCGGCUAGGCAACAUUCCGAGGGGACCGUCCCCUCGGUAAUGGCGAAUGGGACCCA [G29C G38A] | 0
5 | GGCCGGCAUGGUCCCAGCCUCCUCGCUGCCGCAGGCUGGGCAACAUUCCGAGGGGACCGUCCCCUCGGUAAUGGCGAAUGGGACCCA [G29C C33A] | 0.0959
6 | GGCCGGCAUGGUCCCAGCCUCCUCGCUGCCGCCGGCUGGGCAACAUUCCGAGGGGACCGUCCCCUCGGUAAUGGCGAAUCGGACCCA [G29C G80C] | 0.0308
7 | GGCCGGCAUGGUCCCAGCCUCCUCGCUGCCGCCGGCUGCGCAACAUUCCGAGGGGACCGUCCCCUCGGUAAUGGCGAAUGGGACCCA [G29C G39C] | 0.277
8 | GGCCGGCAUGGUCCCAGCCUCCUCGCUGCCGCCGGCUGAGCAACAUUCCGAGGGGACCGUCCCCUCGGUAAUGGCGAAUGGGACCCA [G29C G39A] | 0.0583
9 | GGCCGGCAUGGUCCCAGCCUCCUCGCUGCCGCCGGCUGGGCAACAUUCCGAGGGGACCGUCCCCUCGGUAAUGGCGAAUGGGCCCCA [G29C A83C] | 0.142
10 | GGCCGGCAUGGUCCCAGCCUCCUCGCUGCCGCCGGCUGGGCAACAUUCCGAGCGGACCGUCCCCUCGGUAAUGGCGAAUGGGACCCA [G29C G53C] | 0.0462
11 | GGCCGGCAUGGUCCCAGCCUCCUCGCUGCCGCCGGCUGGGCAACAUUCCGAGAGGACCGUCCCCUCGGUAAUGGCGAAUGGGACCCA [G29C G53A] | 0.133
12 | GGCCGGCAUGGUCCCAGCCUCCUCGCUGCCGCCGGCUGGGCAACAUUCCGAGUGGACCGUCCCCUCGGUAAUGGCGAAUGGGACCCA [G29C G53U] | 0.0723
13 | GGCCGGCAUGGUCCCAGCCUCCUCGCUGCCGCCGGCUGGGCAACAUUCCGAGGGGACCGUCCCCUCGGUGAUGGCGAAUGGGACCCA [G29C A70G] | 0.101
14 | GGCCGGCAUGGUCCCAGCCUCCUCGCUGCCGCCGGCUGGGCAACAUUCCGAGGGGACCGUCCCCUCGGUCAUGGCGAAUGGGACCCA [G29C A70C] | 0.0536
15 | GGCCGGCAUGGUCCCAGCCUCCUCGCUGCCGCCGGCUGGGCAACAUUCCGAGGGGACCGUCCCCUCGGUUAUGGCGAAUGGGACCCA [G29C A70U] | 0.0811
16 | GGCCGGCAUGGUCCCAGCCUCCUCGCUGCCGCCGGCUGGGCAACAUUCCGAGGGGACAGUCCCCUCGGUAAUGGCGAAUGGGACCCA [G29C C58A] | 0.0755
17 | GGCCGGCAUGGUCCCAGCCUCCUCGCUGCCGCCGGCUGGGCAACAUUCCGAGGGGACCGUCCCCUCGGUAAUGGCGAAUGGGACCCU [G29C A87U] | 0.0378
18 | GGCCGGCAUGGUCCCAGCCUCCUCGCUGCCGCCGGCUGGGCAACAUUCCGAGGGGACCGUCCCCUCGGUAAUGGCGAAUGGGACCCG [G29C A87G] | 0.086
19 | GGCCGGCAUGGUCCCAGCCUCCUCGCUGCCGCCGGCUGGGCAACAUUCCGAGGGGACCGUCCCCUCGGUAAUGGCGAAUGGGACCCC [G29C A87C] | 0.0932
20 | GGCCGGCAUGGUCCCAGCCUCCUCGCUGCCACCGGCUGGGCAACAUUCCGAGGGGACCGUCCCCUCGGUAAUGGCGAAUGGGACCCA [G29C G31A] | 0.0875
21 | GGCCGGCAUGGUCCCAGCCUCCUCGCUGCCGUCGGCUGGGCAACAUUCCGAGGGGACCGUCCCCUCGGUAAUGGCGAAUGGGACCCA [G29C C32U] | 0.119
22 | GGCCGGCAUGGUCCCAGCCUCCUCGCUGCCGACGGCUGGGCAACAUUCCGAGGGGACCGUCCCCUCGGUAAUGGCGAAUGGGACCCA [G29C C32A] | 0.0791

Row | Variant | self-cleavage
23 | GGCCGGCAUGGUCCCAGCCUCCUCGCUGCCGCCGGCUGGGCAACAUUCCGAGGGGACCGUCCCCUCGCUAAUGGCGAAUGGGACCCA [G29C G68C] | 0.0449
24 | GGCCGGCAUGGUCCCAGCCUCCUCGCUGCCGCCGGCUGGGCAACAUUCCGAGGGGACCGUCCCCUCGGUAAUGGCGAAUGGGACCAA [G29C C86A] | 0.0519
25 | GGCCGGCAUGGUCCCAGCCUCCUCGCUGCCGCCGGCUGGGCAACAUUCCGAGGGGACCGUCCCCUCGGUAAUGGCGAAUGGGACCUA [G29C C86U] | 0.0739
26 | GGCCGGCAUGGUCCCAGCCUCCUCGCUGCCGCCGGCUGGGCAACAUUCCGAGGGGACCCUCCCCUCGGUAAUGGCGAAUGGGACCCA [G29C G59C] | 0.123
27 | GGCCGGCAUGGUCCCAGCCUCCUCGCUGCCGCCGGCUGGGCAACAUUCCGAGGGGACCGUCCCCUCGGUAAUGGCGAAUGAGACCCA [G29C G81A] | 0.0639
28 | GGCCGGCAUGGUCCCAGCCUCCUCGCUGCCGCCGGCUGGGCAACAUUCCGAGGGGACCGUCCCCUCGGUAAUGGAGAAUGGGACCCA [G29C C75A] | 0.138
29 | GGCCGGCAUGGUCCCAGCCUCCUCGCUGCCGCCGGCUGGGCAACAUUCCGAGGGGACCGUCGCCUCGGUAAUGGCGAAUGGGACCCA [G29C C62G] | 0.155
30 | GGCCGGCAUGGUCCCAGCCUCCUCGCUGCCGCCGGCUGGGCAACAUUCCGAGGGGACCGUCCCCUCCGUAAUGGCGAAUGGGACCCA [G29C G67C] | 0.104
31 | GGCCGGCAUGGUCCCAGCCUCCUCGCUGCCGCCGGCUGGGCAACAUUCCGAGGGGACCGUCCCCUCGGUAAUGGCGCAUGGGACCCA [G29C A77C] | 0.0639
32 | GGCCGGCAUGGUCCCAGCCUCCUCGCUGCCGCCGGCUGGGCAACAUUCCUAGGGGACCGUCCCCUCGGUAAUGGCGAAUGGGACCCA [G29C G50U] | 0
33 | GGCCGGCAUGGUCCCAGCCUCCUCGCUGCCGCCGGCUGGUCAACAUUCCGAGGGGACCGUCCCCUCGGUAAUGGCGAAUGGGACCCA [G29C G40U] | 0.0615
34 | GGCCGGCAUGGUCCCAGCCUCCUCGCUGCCGCCAGCUGGGCAACAUUCCGAGGGGACCGUCCCCUCGGUAAUGGCGAAUGGGACCCA [G29C G34A] | 0
35 | GGCCGGCAUGGUCCCAGCCUCCUCGCUGCCGCCUGCUGGGCAACAUUCCGAGGGGACCGUCCCCUCGGUAAUGGCGAAUGGGACCCA [G29C G34U] | 0.181
36 | GGCCGGCAUGGUCCCAGCCUCCUCGCUGCCGCCCGCUGGGCAACAUUCCGAGGGGACCGUCCCCUCGGUAAUGGCGAAUGGGACCCA [G29C G34C] | 0.125
37 | GGCCGGCAUGGUCCCAGCCUCCUCGCUGCCGCCGGCUGGGCAACAUUCCGAGGGGACCGUCCGCUCGGUAAUGGCGAAUGGGACCCA [G29C C63G] | 0.0489
38 | GGCCGGCAUGGUCCCAGCCUCCUCGCUGCCGCCGGCUGGGCAACAUUCCGAGGGGACCGUCCACUCGGUAAUGGCGAAUGGGACCCA [G29C C63A] | 0.117
39 | GGCCGGCAUGGUCCCAGCCUCCUCGCUGCCGCCGGCUGGGCAACAUUCCGAGGGGACCGUCCUCUCGGUAAUGGCGAAUGGGACCCA [G29C C63U] | 0
40 | GGCCGGCAUGGUCCCAGCCUCCUCGCUGCCGCCGGCUGGGCAACAUUCCGAGGAGACCGUCCCCUCGGUAAUGGCGAAUGGGACCCA [G29C G54A] | 0.0773
41 | GGCCGGCAUGGUCCCAGCCUCCUCGCUGCCGCCGGCUGGGCAACAUUCCGAGGUGACCGUCCCCUCGGUAAUGGCGAAUGGGACCCA [G29C G54U] | 0.204
42 | GGCCGGCAUGGUCCCAGCCUCCUCGCUGCCGCCGGCUGGGCAACAUUUCGAGGGGACCGUCCCCUCGGUAAUGGCGAAUGGGACCCA [G29C C48U] | 0.135
43 | GGCCGGCAUGGUCCCAGCCUCCUCGCUGCCGCCGGCUGGGCAACAUUCCGAGGGGACCGUUCCCUCGGUAAUGGCGAAUGGGACCCA [G29C C61U] | 0.119
44 | GGCCGGCAUGGUCCCAGCCUCCUCGCUGCCGCCGGCUGGGCAACAUUCCGAGGGGACCGUGCCCUCGGUAAUGGCGAAUGGGACCCA [G29C C61G] | 0.032

Row | Variant | self-cleavage
45 | GGCCGGCAUGGUCCCAGCCUCCUCGCUGCCGCCGGCUGGGCAACAUUCCGAGGGCACCGUCCCCUCGGUAAUGGCGAAUGGGACCCA [G29C G55C] | 0.0332
46 | GGCCGGCAUGGUCCCAGCCUCCUCGCUGCGGCCGGCUGGGCAACAUUCCGAGGGGACCGUCCCCUCGGUAAUGGCGAAUGGGACCCA [G29C C30G] | 0
47 | GGCCGGCAUGGUCCCAGCCUCCUCGCUGCUGCCGGCUGGGCAACAUUCCGAGGGGACCGUCCCCUCGGUAAUGGCGAAUGGGACCCA [G29C C30U] | 0.0415
48 | GGCCGGCAUGGUCCCAGCCUCCUCGCUGCCGCCGGCUGGGCAACAUUCCGAGGGGACCGUCCCCUCGGUAAUUGCGAAUGGGACCCA [G29C G73U] | 0.0583
49 | GGCCGGCAUGGUCCCAGCCUCCUCGCUGCCGCCGGCUGGGCAACAUUCCGAGGGGACCGUCCCCUCGGUAAUCGCGAAUGGGACCCA [G29C G73C] | 0.095
50 | GGCCGGCAUGGUCCCAGCCUCCUCGCUGCCGCCGGCUGGGCAACAUUCCGAGGGGACCGUCCCCUCGGUAAUAGCGAAUGGGACCCA [G29C G73A] | 0.0707
51 | GGCCGGCAUGGUCCCAGCCUCCUCGCUGCCGCCGGCUGGGCAACAUUCCGAGGGGGCCGUCCCCUCGGUAAUGGCGAAUGGGACCCA [G29C A56G] | 0.0615
52 | GGCCGGCAUGGUCCCAGCCUCCUCGCUGCCGCCGGGUGGGCAACAUUCCGAGGGGACCGUCCCCUCGGUAAUGGCGAAUGGGACCCA [G29C C36G] | 0.0536
53 | GGCCGGCAUGGUCCCAGCCUCCUCGCUGCCGCCGGUUGGGCAACAUUCCGAGGGGACCGUCCCCUCGGUAAUGGCGAAUGGGACCCA [G29C C36U] | 0.0755
54 | GGCCGGCAUGGUCCCAGCCUCCUCGCUGCCGCCGGCUGGGGAACAUUCCGAGGGGACCGUCCCCUCGGUAAUGGCGAAUGGGACCCA [G29C C41G] | 0.229
55 | GGCCGGCAUGGUCCCAGCCUCCUCGCUGCCGCCGGCUGGGUAACAUUCCGAGGGGACCGUCCCCUCGGUAAUGGCGAAUGGGACCCA [G29C C41U] | 0.0297
56 | GGCCGGCAUGGUCCCAGCCUCCUCGCUGCCGCCGGCUGGGAAACAUUCCGAGGGGACCGUCCCCUCGGUAAUGGCGAAUGGGACCCA [G29C C41A] | 0
57 | GGCCGGCAUGGUCCCAGCCUCCUCGCUGCCGCCGGCUGGGCAACAUUCCGAGGGGACCGUCCCCUCGGUAAUGGCGAUUGGGACCCA [G29C A78U] | 0.0773
58 | GGCCGGCAUGGUCCCAGCCUCCUCGCUGCCGCCGGCUGGGCAACAUUCGGAGGGGACCGUCCCCUCGGUAAUGGCGAAUGGGACCCA [G29C C49G] | 0
59 | GGCCGGCAUGGUCCCAGCCUCCUCGCUGCCGCCGGCUGGGCAACAUUCCGAGGGGAGCGUCCCCUCGGUAAUGGCGAAUGGGACCCA [G29C C57G] | 0.133
60 | GGCCGGCAUGGUCCCAGCCUCCUCGCUGCCGCCGGCUGGGCAACAUUCCGAGGGGAACGUCCCCUCGGUAAUGGCGAAUGGGACCCA [G29C C57A] | 0.125
61 | GGCCGGCAUGGUCCCAGCCUCCUCGCUGCCGCCGGCUGGGCAACAUUCCGAGGGGACCGUCCCCUCGGUAAUGGCGAAUGGGAACCA [G29C C84A] | 0.0831
62 | GGCCGGCAUGGUCCCAGCCUCCUCGCUGCCGCCGGCUGGGCAACAUUCCGAGGGGACCGUCCCCUCGGUAAUGGCGAAUGGGAUCCA [G29C C84U] | 0.032
63 | GGCCGGCAUGGUCCCAGCCUCCUCGCUGCCGCCGGCUGGGCAACAUUCCGAGGGGACCGUCCCCUCGGUAAUGGCGAAUGGGAGCCA [G29C C84G] | 0.208
64 | GGCCGGCAUGGUCCCAGCCUCCUCGCUGCCGCCGGCUGGGCAACAUUCCGACGGGACCGUCCCCUCGGUAAUGGCGAAUGGGACCCA [G29C G52C] | 0.208
